Here are results for 21 molecules from patent US10766952B2, “Methods for reducing migraine frequency in a subject in need thereof” (Beth Israel Deaconess Medical Center, Inc., priority 2017, dated 2020).

B1: M59: G1 variant: L1 R28N,T30D; L2 L56S; H2 E54K,A57N,S58N,H61F; HC-FW3 L99T,A100V (antibody, V domains shown)
VH: EVQLVESGGGLVQPGGSLRLSCAASGFTFSNYWISWVRQAPGKGLEWVAEIRSKSDNNATFYAEAVKGRFTISRDNAKNSLYLQMNSLRAEDTAVYYCTVYFDYGLAIQNYWGQGTLVTVSS
VL: EIVLTQSPATLSLSPGERATLSCKASKNVDTYVSWYQQKPGQAPRLLIYGASNRYSGIPARFSGSGSGTDFTLTISSLEPEDFAVYYCSQSYNYPYTFGQGTKLEIK
B2: M78: G1 variant: L1 R28N,T30S; L2 G50A,L56T; H2 E54K,A57N,S58T; HC-FW3 L99T,A100V (antibody, V domains shown)
VH: B1 VH with N58T, F61H
VL: B1 VL with D30S, G50A, S56T
B3: M63: G1 variant: L1 R28N,T30G; L2 G50A; H2 E54K,A57N,S58T; HC-FW3 L99T,A100V (antibody, V domains shown)
VH: B1 VH with N58T, F61H
VL: B1 VL with D30G, G50A, S56L
B4: M62: G1 variant: L1 R28N,T30G; L2 A51H,L56T; H2 E54K,A57N,S58E; HC-FW3 L99T,A100V (antibody, V domains shown)
VH: B1 VH with N58E, F61H
VL: B1 VL with D30G, A51H, S56T
B5: M66: G1 variant: L1 R28N,T30G; L2 L56I; H2 E54K,A57E; HC-FW3 L99T,A100V (antibody, V domains shown)
VH: B1 VH with N57E, N58S, F61H
VL: B1 VL with D30G, S56I
B6: M68: G1 variant: L1 R28N,T30G; L2 L56I; H2 E54K,A57N,S58D,E64D; HC-FW3 L99T,A100V (antibody, V domains shown)
VH: B1 VH with N58D, F61H, E64D
VL: B1 VL with D30G, S56I
B7: M74: G1 variant: L1 R28N,T30G; L2 L56S; H2 E54K,A57S; HC-FW3 L99T,A100V (antibody, V domains shown)
VH: B1 VH with N57S, N58S, F61H
VL: B1 VL with D30G
B8: M75: G1 variant: L1 R28N,T30G; L2 L56S; H2 E54K,A57V; HC-FW3 L99T,A100V (antibody, V domains shown)
VH: B1 VH with N57V, N58S, F61H
VL: B1 VL with D30G
B9: M60: G1 variant: L1 R28N,T30D; L2 L56S; H2 E54K,A57N,S58R,H61F; HC-FW3 L99T,A100V (antibody, V domains shown)
VH: B1 VH with N58R
VL: B1 VL
B10: M72: G1 variant: L1 R28N,T30G; L2 L56S; H2 E54K; HC-FW3 L99T,A100V (antibody, V domains shown)
VH: B1 VH with N57A, N58S, F61H
VL: B1 VL with D30G
B11: M77: G1 variant: L1 R28N,T30S; L2 G50A,L56T; H2 E54K,A57D; HC-FW3 L99T,A100V (antibody, V domains shown)
VH: B1 VH with N57D, N58S, F61H
VL: B1 VL with D30S, G50A, S56T
B12: M67: G1 variant: L1 R28N,T30G; L2 L56I; H2 E54K,A57F; HC-FW3 L99T,A100V (antibody, V domains shown)
VH: B1 VH with N57F, N58S, F61H
VL: B1 VL with D30G, S56I
B13: M70: G1 variant: L1 R28N,T30G; L2 L56I; H2 E54K,A57S; HC-FW3 L99T,A100V (antibody, V domains shown)
VH: B1 VH with N57S, N58S, F61H
VL: B1 VL with D30G, S56I
B14: M79: G1 variant: L1 R28N,T30S; L2 G50A,L56T; H2 E54K,A57P; HC-FW3 L99T,A100V (antibody, V domains shown)
VH: B1 VH with N57P, N58S, F61H
VL: B1 VL with D30S, G50A, S56T
B15: M65: G1 variant: L1 R28N,T30G; L2 G50A,L56I; H2 E54K,A57C; HC-FW3 L99T,A100V (antibody, V domains shown)
VH: B1 VH with N57C, N58S, F61H
VL: B1 VL with D30G, G50A, S56I
B16: M71: G1 variant: L1 R28N,T30G; L2 L56I; H2 E54K,A57Y; HC-FW3 L99T,A100V (antibody, V domains shown)
VH: B1 VH with N57Y, N58S, F61H
VL: B1 VL with D30G, S56I
B17: M69: G1 variant: L1 R28N,T30G; L2 L56I; H2 E54K,A57N,S58E; HC-FW3 L99T,A100V (antibody, V domains shown)
VH: B1 VH with N58E, F61H
VL: B1 VL with D30G, S56I
B18: M64: G1 variant: L1 R28N,T30G; L2 G50A; H2 E54K,A57N,S58V; HC-FW3 L99T,A100V (antibody, V domains shown)
VH: B1 VH with N58V, F61H
VL: B1 VL with D30G, G50A, S56L
B19: M73: G1 variant: L1 R28N,T30G; L2 L56S; H2 E54K,A57N,S58Y,E64D; HC-FW3 L99T,A100V (antibody, V domains shown)
VH: B1 VH with N58Y, F61H, E64D
VL: B1 VL with D30G
B20: M61: G1 variant: L1 R28N,T30G; L2 A51H; H2 E54Q,A57N,H61F; HC-FW3 L99T,A100V (antibody, V domains shown)
VH: B1 VH with K54Q, N58S
VL: B1 VL with D30G, A51H, S56L
B21: M76: G1 variant: L1 R28N,T30S; L2 G50A,L56T; H2 A57G; HC-FW3 L99T,A100V (antibody, V domains shown)
VH: B1 VH with K54E, N57G, N58S, F61H
VL: B1 VL with D30S, G50A, S56T

Substitutions are numbered along the chain they refer to. In names and notes the source's numbering stands.

The target of the first test is T1, human α-CGRP (Homo sapiens, UniProt P06881).
T1 construct: 1-37 (WT); purchased; host or cells: synthetic peptide
T1 sequence (P06881 83-119 limits assumed): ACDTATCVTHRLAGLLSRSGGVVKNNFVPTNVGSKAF
Description: Biacore affinity of antibody G1 Fab and variants to human α-CGRP. The format is binding. As to conditions: 37° C., Fab, screening mode unless underlined. The procedure: (§1) Biacore assay for affinity determination. […] All Biacore assays were conducted in HBS-EP running buffer (10 mM HEPES pH 7.4, 150 mM NaCl, 3 mM EDTA, 0.005% v/v polysorbate P20). CGRP surfaces were prepared by diluting the N-biotinylated CGRP to a concentration of less than 0.001 mg/mL into HBS-EP buffer and injecting it across the SA sensor chip using variable contact times. Low capacity surfaces, corresponding to capture levels <50 response units (RU) were used for high-resolution kinetic studies, whereas high capacity surfaces (about 800 RU of captured CGRP) were used for concentration studies, screening, and solution affinity determinations. […] Samples were typically injected for lminute at 100 μL/min and dissociation times of at least 10 minutes were allowed. After each binding cycle, surfaces were regenerated with 25 mM NaOH in 25% v/v ethanol, which was tolerated over hundreds of cycles. An entire titration series (typically generated in duplicate) was fit globally to a 1:1 Langmuir binding model using the BlAevaluation program. This returned a unique pair of association and dissociation kinetic rate constants (respectively, kon and koff) for each binding interaction, whose ratio gave the equilibrium dissociation constant (KD=koff/[…]).
(§2) High-resolution analysis of binding interactions with extremely slow offrates. […] The protocol described above was used with the following modifications. The association rate constant (kon) was determined by injecting a 2-fold titration series (in duplicate) spanning 550 nM-1 nM for 30 seconds at 100 μL/min and allowing only a 30 second dissociation phase. The dissociation rate constant (koff) was determined by injecting three concentrations (high, medium, and low) of the same titration series in duplicate for 30 seconds and allowing a 2-hour dissociation phase. The affinity (KD) of each interaction was obtained by combining the kon and koff values obtained in both types of experiments, as shown in Table 4.
(§3) The binding affinities of Fab fragments were determined by Biacore by flowing them across CGRPs on a SA chip.
As to B1, the α-human koff was determined as 0.000524 s⁻¹.
In turn, B2 yielded a α-human koff of 0.00131 s⁻¹.
On the same count and under the same terms, in the case of B3 it was 0.0015 s⁻¹.
With B4, the α-human koff amounted to 0.000557 s⁻¹.
Still for that read-out and setting: in the case of B5 it was 0.00052 s⁻¹.
As for B6, the α-human koff turned out to be 0.000428 s⁻¹.
Same read-out and setting: in the case of B7 it was 0.000597 s⁻¹; in that of B8, 0.00116 s⁻¹; in that of B9, 0.000911 s⁻¹.
Still for that read-out and setting: for B10 the value was 0.0004 s⁻¹; for B11, 0.000477 s⁻¹; for B12, 0.00082 s⁻¹.
B13 came in with a α-human koff of 0.000559 s⁻¹.
Same read-out and setting: for B14 the value was 0.00129 s⁻¹; for B15, 0.000803 s⁻¹.
On to B16, for which the α-human koff came to 0.00128 s⁻¹.
Still for that read-out and setting: for B17 the value was 0.000733 s⁻¹; for B18, 0.00132 s⁻¹.
Still for that read-out and setting: for B19 the value was 0.000255 s⁻¹; for B20, 0.000459 s⁻¹.
Still for that read-out and setting: in the case of B21 it was 0.000364 s⁻¹.

For a further test, the target named is T2, rat α-CGRP (Rattus norvegicus, UniProt P01256).
T2 construct: rat α (1-37); host or cells: synthetic peptide
T2 sequence (P01256 83-119 limits assumed): T1 sequence (P06881 83-119 limits assumed) with A1S, D3N, N25D, K35E
In words: Biacore affinity of antibody G1 Fab and variants to rat α-CGRP. The format is binding. As to conditions: 37° C., Fab, screening mode unless underlined. The procedure: as §1, §2, §3
(SPR reads the build-up and loss of mass on a sensor chip optically.)
Regarding B1, the α-rat koff amounted to 0.0123 s⁻¹.
Take B2: the α-rat koff was 0.167 s⁻¹.
Same read-out and setting: in the case of B3 it was 0.00265 s⁻¹; in that of B4, 0.00575 s⁻¹.
The same measure, in the same setting: for B5 the value was 0.00511 s⁻¹.
On the same count and under the same terms, for B6 the value was 0.00676 s⁻¹; for B7, 0.00603 s⁻¹.
As to B8, the α-rat koff was found to be 0.0187 s⁻¹.
Same read-out and setting: in the case of B9 it was 0.0272 s⁻¹; in that of B10, 0.00395 s⁻¹.
On the same count and under the same terms, for B11 the value was 0.0143 s⁻¹.
Molecule B12 returned a α-rat koff of 0.00171 s⁻¹.
On the same count and under the same terms, for B13 the value was 0.00607 s⁻¹; for B14, 0.19 s⁻¹; for B15, 0.00407 s⁻¹.
On the same count and under the same terms, for B16 the value was 0.00212 s⁻¹; for B17, 0.00181 s⁻¹.
In the case of B18, the α-rat koff is 0.0234 s⁻¹.
B19 had a α-rat koff of 0.003 s⁻¹.
As for B20, the α-rat koff is 0.00521 s⁻¹.
The same measure, in the same setting: in the case of B21 it was 0.00116 s⁻¹.
